Source: paper PMC2757719

Columns and labels:
Test in all cases: EMSA
Conditions in all cases: 20 mM Tris pH 7.5, 200 mM NaCl, 1 ug salmon sperm DNA, 10 fmol probe, 20 ul, room temperature 10 min; 10% polyacrylamide gel
[1] = molecular target: EBNA1 395-641;USP7 (Epstein-Barr virus;human?) (UniProt P03211+Q93009)
[2] = molecular target: EBNA1 452-641;USP7 (Epstein-Barr virus;human?) (UniProt P03211+Q93009)
[3] = molecular target: T1, EBNA1 395-641 (Epstein-Barr virus) (UniProt P03211)
T1 sequence: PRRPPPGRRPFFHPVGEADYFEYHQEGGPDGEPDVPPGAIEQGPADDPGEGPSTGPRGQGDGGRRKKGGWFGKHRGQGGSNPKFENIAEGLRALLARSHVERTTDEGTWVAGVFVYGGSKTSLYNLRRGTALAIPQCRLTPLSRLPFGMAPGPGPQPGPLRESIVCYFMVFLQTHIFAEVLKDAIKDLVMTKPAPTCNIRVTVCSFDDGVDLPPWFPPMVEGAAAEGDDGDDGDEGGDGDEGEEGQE

EBNA1 452-641;USP7 (Epstein-Barr virus;human?), sequence (Q93009 whole entry, one chain of several): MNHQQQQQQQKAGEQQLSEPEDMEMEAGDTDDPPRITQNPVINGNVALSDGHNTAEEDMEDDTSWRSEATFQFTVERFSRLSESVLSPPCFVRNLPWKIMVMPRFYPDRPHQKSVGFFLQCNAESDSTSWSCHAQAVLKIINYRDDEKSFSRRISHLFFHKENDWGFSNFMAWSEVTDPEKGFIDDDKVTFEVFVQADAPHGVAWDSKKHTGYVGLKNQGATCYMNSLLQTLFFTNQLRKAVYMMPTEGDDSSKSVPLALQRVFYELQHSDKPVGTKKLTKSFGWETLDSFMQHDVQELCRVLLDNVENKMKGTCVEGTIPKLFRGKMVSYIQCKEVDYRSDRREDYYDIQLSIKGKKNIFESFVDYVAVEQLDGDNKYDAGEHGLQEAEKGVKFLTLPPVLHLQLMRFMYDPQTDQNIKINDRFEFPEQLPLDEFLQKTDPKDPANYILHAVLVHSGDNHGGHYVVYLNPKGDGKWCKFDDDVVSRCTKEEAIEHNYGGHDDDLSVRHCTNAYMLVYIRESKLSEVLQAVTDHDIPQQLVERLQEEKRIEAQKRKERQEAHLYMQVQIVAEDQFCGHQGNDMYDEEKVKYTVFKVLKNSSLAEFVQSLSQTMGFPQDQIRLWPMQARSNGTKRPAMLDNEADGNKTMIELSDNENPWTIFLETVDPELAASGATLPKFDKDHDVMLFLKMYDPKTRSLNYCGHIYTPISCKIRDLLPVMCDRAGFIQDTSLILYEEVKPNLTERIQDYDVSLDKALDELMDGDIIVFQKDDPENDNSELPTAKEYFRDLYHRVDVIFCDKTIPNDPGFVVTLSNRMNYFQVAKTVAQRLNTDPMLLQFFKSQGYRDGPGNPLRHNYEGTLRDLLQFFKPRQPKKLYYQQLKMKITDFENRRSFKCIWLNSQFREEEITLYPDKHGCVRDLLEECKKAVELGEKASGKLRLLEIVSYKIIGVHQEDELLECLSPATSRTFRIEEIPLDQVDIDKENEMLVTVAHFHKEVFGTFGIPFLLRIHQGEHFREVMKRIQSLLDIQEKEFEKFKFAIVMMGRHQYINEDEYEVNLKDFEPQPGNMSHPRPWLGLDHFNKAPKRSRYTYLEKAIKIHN
EBNA1 395-641;USP7 (Epstein-Barr virus;human?), sequence (Q93009 whole entry, one chain of several): as above

“CGGGAAGCATATGCTACCCG (double strand) [DS site 1 20-mer]” gave a Kd [1] of 4 nM, a binding signal (fold increase vs P3 alone) [2] of 4 and a Kd [3] of 233 nM.
